Patent US20150210998
Positions count from the first letter of the chain named.

Legend:
[1] = target: UbcH7˜125I-ubiquitin thioester, P68036
Chain of UbcH7˜125I-ubiquitin thioester, P68036 (P68036 whole entry, looked up): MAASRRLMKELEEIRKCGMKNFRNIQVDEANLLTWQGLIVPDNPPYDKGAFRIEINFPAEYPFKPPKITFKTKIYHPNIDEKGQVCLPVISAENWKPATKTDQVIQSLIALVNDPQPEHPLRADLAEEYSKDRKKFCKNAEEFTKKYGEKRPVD

B1: GST-E6APK688A (protein)
chain: MATACKRSGEPQSDDIEASRMKRAAAKHLIERYYHQLTEGCGNEACTNEFCASCPTFLRMDNNAAAIKALELYKINAKLCDPHPSKKGASSAYLENSKGAPNNSCSEIKMNKKGARIDFKDVTYLTEEKVYEILELCREREDYSPLIRVIGRVFSSAEALVQSFRKVKQHTKEELKSLQAKDEDKDEDEKEKAACSAAAMEEDSEASSSRIGDSSQGDNNLQKLGPDDVSVDIDAIRRVYTRLLSNEKIETAFLNALVYLSPNVECDLTYHNVYSRDPNYLNLFIIVMENRNLHSPEYLEMALPLFCKAMSKLPLAAQGKLIRLWSKYNADQIRRMMETFQQLITYKVISNEFNSRNLVNDDDAIVAASKCLKMVYYANVVGGEVDTNHNEEDDEEPIPESSELTLQELLGEERRNKKGPRVDPLETELGVKTLDCRKPLIPFEEFINEPLNEVLEMDKDYTFFKVETENKFSFMTCPFILNAVTKNLGLYYDNRIRMYSERRITVLYSLVQGQQLNPYLRLKVRRDHIIDDALVRLEMIAMENPADLKKQLYVEFEGEQGVDEGGVSKEFFQLVVEEIFNPDIGMFTYDESTKLFWFNPSSFETEGQFTLIGIVLGLAIYNNCILDVHFPMVVYRKLMGKKGTFRDLGDSHPVLYQSLKDLLEYEGNVEDDMMITFQISQTDLFGNPMMYDLKENGDKIPITNENRAEFVNLYSDYILNKSVEKQFKAFRRGFHMVTNESPLKYLFRPEEIELLICGSRNLDFQALEETTEYDGGYTRDSVLIREFWEIVHSFTDEQKRLFLQFTTGTDRAPVGGLGKLKMIIAKNGPDTERLPTSHTCFNVLLLPEYSSKEKLKERLLKAITYAKGFGML
B1 gave a Km- [1] of 0.039 µM.

B2: GST-E6APY533A (protein)
chain: B1 chain with Y553A, A708K
For B2, the “fold decrease in kcat of polyubiquitin chain formation” value (from here on “fold decrease in kcat”) (Q05086) was “decreased kcat 10-fold” and the Km- [1] was 0.04 µM.

B3: GST-E6APD543A (protein)
chain: B1 chain with D563A, A708K
Work on B3 yielded a Km- [1] of 0.54 µM.

B4: GST-E6APR626A (protein)
chain: B1 chain with R646A, A708K
B4 was tested, and the “fold decrease in kcat” value (Q05086) was “decreased kcat 155-fold” and the Km- [1] was 0.15 µM.

B5: GST-E6APF727D (protein)
chain: B1 chain with A708K, F727D
With B5 the “fold decrease in kcat” value (Q05086) was 62-fold decrease in kcat and the Km- [1] was 0.072 µM.

B6: E6AP ligase Hect domain (GST removed by thrombin) (protein)
chain: INEPLNEVLEMDKDYTFFKVETENKFSFMTCPFILNAVTKNLGLYYDNRIRMYSERRITVLYSLVQGQQLNPYLRLKVRRDHIIDDALVRLEMIAMENPADLKKQLYVEFEGEQGVDEGGVSKEFFQLVVEEIFNPDIGMFTYDESTKLFWFNPSSFETEGQFTLIGIVLGLAIYNNCILDVHFPMVVYRKLMGKKGTFRDLGDSHPVLYQSLKDLLEYEGNVEDDMMITFQISQTDLFGNPMMYDLKENGDKIPITNENRKEFVNLYSDYILNKSVEKQFKAFRRGFHMVTNESPLKYLFRPEEIELLICGSRNLDFQALEETTEYDGGYTRDSVLIREFWEIVHSFTDEQKRLFLQFTTGTDRAPVGGLGKLKMIIAKNGPDTERLPTSHTCFNVLLLPEY
Protein B6 has a Km- [1] of 0.091 µM.

B7: GST-E6AP ligase Hect domain (protein)
chain: B6 chain
B7 was tested, and the Km- [1] was 0.089 µM.
